In patent US20250215091A1, “Anti-GAL3 Antibodies and Compositions” (Les Laboratoires Servier, priority 2022, published 2025):

Tests used:
[1] = test system: genes differentially regulated between HOCI group and control group in whole blood cells; experiment: HOCI-induced murine fibrosis model: whole blood RNA sequencing; format: in vivo, mice; settings: of 510 genes differentially regulated HOCI vs control; day 42, whole blood
Procedure: In a first experiment, control mice (n=12) received a daily intradermal injection of 300 μL of sterile phosphate buffer saline (PBS) for 5 consecutive days per week, for a duration of 42 days. HOCI alone and HOCI with antibody (HOCI-antibody) treated mice (n=12 per group) received a daily intradermal injection of 300 μL of HOCI for 5 consecutive days per week, for a duration of 42 days. Antibody-treated mice also received a subcutaneous injection of 20 mg/kg antibody, starting at day minus one and every 5 days between day 5 and day 40. Each antibody was solubilized in sterile, endotoxin-free PBS before injection. In a second experiment, the same protocol was applied, except that duration of the study was 63 days and antibodies were given every 7 days starting at day minus 1 until day 62.
Mice that received daily injection of HOCI were also treated by intratracheal instillation of 0.5 mg/kg of TD139 compound (HOCI-TD139), a small molecule Gal3 inhibitor. In a first experiment, the administrations started from day 21 and the compound was given every 3 days until day 39. In a second experiment, the administrations started from day 20 and the compound was given every 3 days until day 62. TD139 was initially dissolved in 100% DMSO then diluted 50-fold in endotoxin-free PBS before administration.
In the first experiment, global gene expression was examined at day 42 in whole blood cells by RNA sequencing.
Whole blood was collected in RNA protect tubes (Qiagen) and were processed for RNA extraction using the RNeasy Protect Animal blood kit with the optional on-column DNAse I digestion. Total RNA samples were quantified on Nanodrop 2000 (ThermoFisher Scientific™) and analyzed on Bioanalyzer (Agilent) using RNA 6000 Nano chips to determine RNA quality (RIN). Total RNA matching the QC criteria were included in the study. Purified RNA samples were used as input for the TruSeq Strand-specific RNA-seq (poly A selection and globin depletion) according to manufacturer's protocol (Illumina). […]
Raw reads were processed using the in-house RNAExp Expression pipeline 2.1 and the quality was assessed using FastQC tools. Then, reads were trimmed for adaptors using Cutadapt and trimmed reads were aligned to mouse mm39 reference genome using the STAR aligner. Aligned data were evaluated for quality using Samtools and Picard tools. Then, aligned reads per gene were quantified using FeatureCount. […] Read count were normalized by the variance stabilizing transformation vst function from DESeq2 R package.
55,416 genes were detected in the data. […] Genes differentially expressed between groups were determined using a linear model (ImFit function from limma R package) on vst transformation gene expression dataset. […]

[2] = test system: murine model of bleomycin-induced fibrosis; experiment: Bleomycin-induced murine lung fibrosis model: body weight and body weight metrics; format: in vivo, mice
Procedure: Control bleomycin mice named ‘Bleo’ received an administration of 1.65 mg/kg bleomycin by the oropharyngeal route on Day 1. […] Antibody-treated mice also received an administration of 1.65 mg/kg bleomycin by the oropharyngeal route on Day 1 and a subcutaneous injection of 20 mg/kg antibody, starting on day minus one and on days 4, 8, 12, 16 and 20. Each antibody was solubilized in sterile, endotoxin-free PBS before injection. Mice that received bleomycin were also treated by oropharyngeal administration of 0.5 mg/kg of TD139 compound (Bleo-TD139), a small molecule Gal3 inhibitor, starting on day 12 and every 2 days until day 20. TD139 was initially dissolved in 100% DMSO.
Mice were weighed daily. Their growth curves are represented on FIG. 12. Control mice had normal growth with a mean percent increase of 6.4% of their initial body weight measured on day minus 1.
Body weight metrics were assessed by using two parameters called Time to weight growth (TWG) and Time to baseline (TTB), shown on FIG. 13. Time to weight growth corresponds to the point of inflection when mice show an ascending growth curve and start to regain weight within the course of the experiment. Time to baseline corresponds to the number of days required for mice to recover their initial body weight (day minus 1). The median TWG was 10 days for the untreated bleomycin group. […] TD139 compound had no efficacy on this parameter (p-value 0.53).

[3] = bleomycin 1.65 mg/kg, antibody 20 mg/kg s.c.

B1: E07: anti-Gal3 monoclonal antibody, IgG1 format; VH SEQ ID NO 42, VL SEQ ID NO 43 (antibody, V domains shown)
VH: EVQLVESGGSLVKPGGSLRLSCAASGFTFSNYNMNWVRQAPGKGLEWISNIYGSSRYIYYADFVKGRFTISRDNAKNSLYLQMNSLRAEDTAVYYCVRSYYGGMDVWGRGTLVTVSS
VL: QSVLTQPASVSGSPGQSITISCAGTSSDVGGYYSVSWYQQHPGKAPKLMIYYDSNRPSGVSNRFSGSKSGNTASLTISGLQAEDEADYYCSSYTGYSTRVFGGGTKLEIK
number of HOCI-dysregulated genes counteracted by treatment [1]: 445 genes | percentage of HOCI-dysregulated genes counteracted by treatment [1]: 87.2% | body weight status on day 21 [2, 3]: full weight recovery | day from which body weight reached values close to those of control mice [2, 3]: 18 days | recovery of body weight ([2]; bleomycin 1.65 mg/kg, antibody 20 mg/kg s.c., FIG. 12): more rapid recovery of body weight | reduction of median Time to weight growth (TWG) ([2]; median TWG 10 days for untreated bleomycin group, FIG. 13): 2 days
